Key:
[1] = target: complement component C3b (obtained after hydrolysis of C3) (UniProt P01024); assay: biolayer interferometry
[2] = target: T1, complement component C3b (obtained after hydrolysis of C3) (UniProt P01024 23-667; P01024 749-1663); assay: biolayer interferometry; B10 made recombinantly in E. coli
[3] = target: T1, complement component C3b (obtained …); assay: biolayer interferometry; B10 made by full chemical synthesis
[4] = target: T1, complement component C3b (obtained …); assay: biolayer interferometry (Octet RED96), GFP tagged Nanofitin captured by anti-GFP Nanofitin, C3b in solution, 1:1 fit

T1 sequence (P01024 23-667 limits assumed, chain 1 of 2): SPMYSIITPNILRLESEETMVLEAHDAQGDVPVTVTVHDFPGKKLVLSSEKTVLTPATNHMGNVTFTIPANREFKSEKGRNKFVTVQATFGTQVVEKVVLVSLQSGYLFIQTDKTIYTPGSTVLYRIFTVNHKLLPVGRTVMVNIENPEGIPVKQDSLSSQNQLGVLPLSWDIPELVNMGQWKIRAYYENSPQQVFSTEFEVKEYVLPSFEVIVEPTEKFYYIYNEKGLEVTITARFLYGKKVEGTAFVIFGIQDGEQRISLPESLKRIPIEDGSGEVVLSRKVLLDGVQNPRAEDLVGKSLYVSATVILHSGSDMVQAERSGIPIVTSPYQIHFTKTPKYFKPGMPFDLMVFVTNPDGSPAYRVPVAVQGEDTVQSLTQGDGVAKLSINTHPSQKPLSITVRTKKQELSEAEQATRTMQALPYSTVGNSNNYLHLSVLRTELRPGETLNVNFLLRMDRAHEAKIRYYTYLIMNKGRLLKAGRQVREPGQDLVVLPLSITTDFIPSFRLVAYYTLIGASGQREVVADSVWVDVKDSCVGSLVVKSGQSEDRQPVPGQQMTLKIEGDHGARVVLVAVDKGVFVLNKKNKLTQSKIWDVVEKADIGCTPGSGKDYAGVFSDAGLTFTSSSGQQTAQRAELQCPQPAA
T1 sequence (P01024 749-1663 limits assumed, chain 2 of 2): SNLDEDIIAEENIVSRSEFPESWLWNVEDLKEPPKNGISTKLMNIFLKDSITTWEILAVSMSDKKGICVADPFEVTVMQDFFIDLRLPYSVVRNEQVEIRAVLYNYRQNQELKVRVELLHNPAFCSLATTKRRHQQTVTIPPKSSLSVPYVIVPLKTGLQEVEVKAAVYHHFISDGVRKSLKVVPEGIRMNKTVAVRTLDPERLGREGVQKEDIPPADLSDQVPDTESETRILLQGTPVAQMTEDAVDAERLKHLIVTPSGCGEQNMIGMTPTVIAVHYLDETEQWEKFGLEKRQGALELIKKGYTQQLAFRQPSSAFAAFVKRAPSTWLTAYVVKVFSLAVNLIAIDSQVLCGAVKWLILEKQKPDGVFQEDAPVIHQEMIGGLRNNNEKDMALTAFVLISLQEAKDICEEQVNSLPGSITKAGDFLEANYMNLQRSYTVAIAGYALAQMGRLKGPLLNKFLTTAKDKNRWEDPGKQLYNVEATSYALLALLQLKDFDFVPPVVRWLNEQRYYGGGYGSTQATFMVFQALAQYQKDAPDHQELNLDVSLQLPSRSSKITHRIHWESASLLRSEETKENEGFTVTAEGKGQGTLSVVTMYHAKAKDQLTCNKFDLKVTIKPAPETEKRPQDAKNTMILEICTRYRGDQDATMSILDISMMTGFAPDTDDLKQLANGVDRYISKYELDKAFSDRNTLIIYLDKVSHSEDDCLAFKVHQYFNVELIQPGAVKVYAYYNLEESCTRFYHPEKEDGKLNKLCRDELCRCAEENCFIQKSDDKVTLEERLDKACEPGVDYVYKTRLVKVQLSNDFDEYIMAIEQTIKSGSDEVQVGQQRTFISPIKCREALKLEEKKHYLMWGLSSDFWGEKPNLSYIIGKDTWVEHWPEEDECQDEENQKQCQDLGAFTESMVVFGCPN
Sequence of complement component C3b (obtained after hydrolysis of C3) (UniProt P01024) (P01024 23-667 limits assumed, chain 1 of 2): as the sequence (P01024 23-667 limits assumed, chain 1 of 2) above
Sequence of complement component C3b (obtained after hydrolysis of C3) (UniProt P01024) (P01024 749-1663 limits assumed, chain 2 of 2): as the sequence (P01024 749-1663 limits assumed, chain 2 of 2) above

Binder | Kd [1] [nM] | Kd [4] [nM] | koff [4] [s⁻¹] | kon [4] [M⁻¹ s⁻¹] | further results
anti-C3 Nanofitin B10 with N-terminal peptide (10-mers) and C-terminal 30 kDa protein (designed binder, part only; not given: peptide tag and 30 kDa protein, not shown: small tags and cut ends) chain, part: MVKVKFDATGEEKEVDTSKISAVYRTGKDVLFSYDDNGKIGWGYVSEKDAPKELLDLLARAERE | 7.3 |  |  |  | 
anti-C3 Nanofitin B10 with N-terminal 48 kDa protein (designed binder, part only; not given: 48 kDa fusion protein, part only) chain, part: MVKVKFDATGEEKEVDTSKISAVYRTGKDVLFSYDDNGKIGWGYVSEKDAPKELLDLLARAERE | 6.7 |  |  |  | 
anti-C3 Nanofitin B10 without N- or C-terminal tag (designed binder, also called Nter tag none, Cter tag none) MVKVKFDATGEEKEVDTSKISAVYRTGKDVLFSYDDNGKIGWGYVSEKDAPKELLDLLARAERE |  |  |  |  | Kd [2]: 18.5 nM; Kd [3]: 18 nM
B10 (SEQ ID NO: 25), GFP tagged Nanofitin (designed binder, Variant of Nf1 from off-rate selection; not shown: GFP tag) MVKVKFDATGEEKEVDTSKISAVYRTGKDVLFSYDDNGKIGWGYVSEKDAPKELLDLLARAERE |  | 7.31 | 0.000433 | 59200 | 
H03 (SEQ ID NO: 26), GFP tagged Nanofitin (designed binder, Variant of Nf1 from off-rate selection; not shown: GFP tag) MVKVKFAATGEEKEVDTSKIANVYRVGKDVLFSYDDNGKIGWGYVSEKDAPKELLDLLARAERE |  | 2.89 | 0.000188 | 65200 | 

Source: patent publication EP4059949A1 (AFFILOGIC, dated 2022)
